Results on 2 molecules are retold here after patent US20140223606, “COMPOSITIONS AND METHODS COMPRISING SEQUENCES HAVING MEGANUCLEASE ACTIVITY” (PIONEER HI BRED INTERNATIONAL INC, published 2014).

Conditions in all cases: tags: NLS, 6xHis
The target in one data set is T1, ZM6.3(H3) (artificial).
T1 chain: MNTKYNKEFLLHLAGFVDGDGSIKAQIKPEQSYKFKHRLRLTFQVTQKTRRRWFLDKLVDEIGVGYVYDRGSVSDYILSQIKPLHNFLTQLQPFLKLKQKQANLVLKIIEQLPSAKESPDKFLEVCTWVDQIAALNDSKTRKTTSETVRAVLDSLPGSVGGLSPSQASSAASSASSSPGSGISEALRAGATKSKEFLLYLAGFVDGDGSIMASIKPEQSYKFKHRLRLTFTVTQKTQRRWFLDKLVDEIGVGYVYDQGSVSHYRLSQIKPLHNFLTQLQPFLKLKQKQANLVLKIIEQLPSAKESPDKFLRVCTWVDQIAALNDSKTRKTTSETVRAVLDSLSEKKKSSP
The data set can be described thus: cell_activity; yeast 37 C; 28 C: 2. Here is the method:
(§1) A 3 mL culture of selective media (MP Biomedical) was inoculated with a single colony of the yeast screening strain and grown at 30° C. overnight. On the following day, a 50 ml YPD culture (MP Biomedical) was started with 2 ml of the overnight culture and grown at 30° C. overnight. On the following day, the cells were harvested by centrifugation at 4000 rpm. The cells were resuspended in 100 ml ice cold water and centrifuged again. The cells were then washed in 1.2 M sorbitol, followed by treatment with 2 ml of 10 mM Tris pH 8.0, 1 mM EDTA, 100 mM Lithium acetate, 10 mM DTT, 0.6M sorbitol for 30 minutes at 30° C. with shaking. The cells were recovered by centrifugation, washed in 40 ml 1.2M sorbitol and finally resuspended in 250 microliters of 1.2M sorbitol. 50 microliter aliquots were transferred to test tubes on ice. Up to 5 microliters of DNA (100-500 nanograms) were added. The suspension was transferred to a 0.2 cm electroporation cuvette, on ice. Electroporation was performed with a pulse charge at 1.5 kV, 200 ohms, 25 microF (pulse time of 5 milliseconds). 1 mL YPD media (MP Biomedical) was added and the cells were allowed to recover at 30° C. for 1-2 hr. The cells were centrifuged, resuspended in 100 uL 1M sorbitol and plated on selective media lacking leucine and containing 2% galactose. The resulting yeast colonies were incubated at various temperatures ranging from 22 to 37 degrees Celsius for 7-10 days. I-CreI and meganucleases derived from it have maximal activity at or above 37 degrees Celsius. Screening was performed at a range of temperatures from 22 to 37 degrees in order to observe increases in activity at lower temperatures which are relevant to certain biological systems (eg. plant cells, plant cell cultures, etc). At that time the red/white sectoring phenotype, indicative of meganuclease activity was observed. Colonies with increased white sectoring over the parental meganuclease (indicating colonies expressing a meganuclease with increased meganuclease activity), also referred to as “hits” and sometimes completely white, were isolated for further analysis.
(§2) A total of 15 Zm6.3 variants with increased activity were confirmed in the yeast system (as described in Example 6). Increased activity was observed across a range of temperatures: 28 degrees Celsius, 30 degrees Celsius and 37 degrees Celsius, as shown in Table 15.

A further data set addresses T2, ZM6.3(G3) (artificial).
T2 chain: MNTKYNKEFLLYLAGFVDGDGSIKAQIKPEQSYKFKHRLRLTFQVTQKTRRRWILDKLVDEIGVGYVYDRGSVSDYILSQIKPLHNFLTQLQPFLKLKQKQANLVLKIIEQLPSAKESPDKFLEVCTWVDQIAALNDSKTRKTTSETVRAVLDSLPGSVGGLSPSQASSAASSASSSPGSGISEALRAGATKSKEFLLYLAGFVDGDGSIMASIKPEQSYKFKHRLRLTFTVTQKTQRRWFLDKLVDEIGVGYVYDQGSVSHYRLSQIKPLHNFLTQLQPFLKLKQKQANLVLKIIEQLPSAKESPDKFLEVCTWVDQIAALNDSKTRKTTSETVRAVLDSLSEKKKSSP
The experiment in a line: cell_activity; yeast 37 C; 28 C: 2. The protocol: as §1, §2

The target in another data set is T3, ZM6.3(G4) (artificial).
T3 chain: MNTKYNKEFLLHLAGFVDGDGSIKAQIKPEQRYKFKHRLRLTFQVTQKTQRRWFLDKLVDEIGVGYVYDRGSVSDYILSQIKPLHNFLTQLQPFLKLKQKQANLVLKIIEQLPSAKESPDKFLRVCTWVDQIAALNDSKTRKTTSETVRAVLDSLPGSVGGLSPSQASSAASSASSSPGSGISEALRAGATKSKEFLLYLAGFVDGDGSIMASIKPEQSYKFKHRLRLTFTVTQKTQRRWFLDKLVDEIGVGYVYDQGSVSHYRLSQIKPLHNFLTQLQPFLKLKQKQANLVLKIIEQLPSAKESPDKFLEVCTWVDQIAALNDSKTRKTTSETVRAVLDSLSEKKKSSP
The data set can be described thus: cell_activity; yeast 37 C; 28 C: 2. Here is the method: as §1, §2

A further data set has as its target T4, MHP14(13) (artificial).
T4 chain: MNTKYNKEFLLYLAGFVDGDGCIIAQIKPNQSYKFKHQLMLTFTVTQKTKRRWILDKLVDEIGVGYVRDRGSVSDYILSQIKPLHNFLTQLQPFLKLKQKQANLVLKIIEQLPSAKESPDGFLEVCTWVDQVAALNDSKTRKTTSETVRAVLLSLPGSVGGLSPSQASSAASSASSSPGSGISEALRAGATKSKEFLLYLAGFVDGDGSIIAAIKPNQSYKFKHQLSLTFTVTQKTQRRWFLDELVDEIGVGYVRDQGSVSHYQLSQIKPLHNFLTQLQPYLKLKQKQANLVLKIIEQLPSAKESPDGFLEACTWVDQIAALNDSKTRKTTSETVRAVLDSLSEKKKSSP
The experiment in a line: cell_activity; yeast 37 C; 28 C: 1. Here is the method:
(§3) A 3 mL culture of selective media (MP Biomedical) was inoculated with a single colony of the yeast screening strain and grown at 30° C. overnight. On the following day, a 50 ml YPD culture (MP Biomedical) was started with 2 ml of the overnight culture and grown at 30° C. overnight. On the following day, the cells were harvested by centrifugation at 4000 rpm. The cells were resuspended in 100 ml ice cold water and centrifuged again. The cells were then washed in 1.2 M sorbitol, followed by treatment with 2 ml of 10 mM Tris pH 8.0, 1 mM EDTA, 100 mM Lithium acetate, 10 mM DTT, 0.6M sorbitol for 30 minutes at 30° C. with shaking. The cells were recovered by centrifugation, washed in 40 ml 1.2M sorbitol and finally resuspended in 250 microliters of 1.2M sorbitol. 50 microliter aliquots were transferred to test tubes on ice. Up to 5 microliters of DNA (100-500 nanograms) were added. The suspension was transferred to a 0.2 cm electroporation cuvette, on ice. Electroporation was performed with a pulse charge at 1.5 kV, 200 ohms, 25 microF (pulse time of 5 milliseconds). 1 mL YPD media (MP Biomedical) was added and the cells were allowed to recover at 30° C. for 1-2 hr. The cells were centrifuged, resuspended in 100 uL 1M sorbitol and plated on selective media lacking leucine and containing 2% galactose. The resulting yeast colonies were incubated at various temperatures ranging from 22 to 37 degrees Celsius for 7-10 days. I-CreI and meganucleases derived from it have maximal activity at or above 37 degrees Celsius. Screening was performed at a range of temperatures from 22 to 37 degrees in order to observe increases in activity at lower temperatures which are relevant to certain biological systems (eg. plant cells, plant cell cultures, etc). At that time the red/white sectoring phenotype, indicative of meganuclease activity was observed. Colonies with increased white sectoring over the parental meganuclease (indicating colonies expressing a meganuclease with increased meganuclease activity), also referred to as “hits” and sometimes completely white, were isolated for further analysis. […]

A further data set has as its target T5, MHP14(08) (artificial).
T5 chain: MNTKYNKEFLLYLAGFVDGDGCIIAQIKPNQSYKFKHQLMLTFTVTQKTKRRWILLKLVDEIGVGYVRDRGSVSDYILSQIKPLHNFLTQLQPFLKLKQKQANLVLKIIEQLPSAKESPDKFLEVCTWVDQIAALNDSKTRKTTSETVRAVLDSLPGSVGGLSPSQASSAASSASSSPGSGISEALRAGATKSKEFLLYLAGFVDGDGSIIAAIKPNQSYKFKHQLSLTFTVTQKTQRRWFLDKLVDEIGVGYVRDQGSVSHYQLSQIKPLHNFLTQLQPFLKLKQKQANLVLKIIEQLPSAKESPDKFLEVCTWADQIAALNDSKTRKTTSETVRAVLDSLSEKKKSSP
The data set can be described thus: cell_activity; yeast 37 C; 28 C: 1. The protocol: as §3

B1: ZM6.3 recognition site (dsDNA)
DNA 1: CAGGCTCTCGTAAATGCGCCTG
DNA 2: CAGGCGCATTTACGAGAGCCTG
Turning to B1, the activity with ZM6.3(H3), in the data set with ZM6.3(G3) and in the data set with ZM6.3(G4) was 4 score 0-4 throughout.

B2: MHP14 recognition site (dsDNA)
DNA 1: CAAACAGATTCACGTCAGATTT
DNA 2: AAATCTGACGTGAATCTGTTTG
As for B2, the activity in the data set with MHP14(13) amounted to 3.5 score 0-4; in the data set with MHP14(08) it was 4 score 0-4.
